Assays:
I20A = target: T1, I20A; test: flow cytometry, HEK293 transfected with hCCR8 I20A with C-terminal FLAG; sheet prints [huCCR8]=0.02 ug/ml
T1 construct: single alanine mutant of hCCR8; also called hCCR8 I20A
T1 receptor chain: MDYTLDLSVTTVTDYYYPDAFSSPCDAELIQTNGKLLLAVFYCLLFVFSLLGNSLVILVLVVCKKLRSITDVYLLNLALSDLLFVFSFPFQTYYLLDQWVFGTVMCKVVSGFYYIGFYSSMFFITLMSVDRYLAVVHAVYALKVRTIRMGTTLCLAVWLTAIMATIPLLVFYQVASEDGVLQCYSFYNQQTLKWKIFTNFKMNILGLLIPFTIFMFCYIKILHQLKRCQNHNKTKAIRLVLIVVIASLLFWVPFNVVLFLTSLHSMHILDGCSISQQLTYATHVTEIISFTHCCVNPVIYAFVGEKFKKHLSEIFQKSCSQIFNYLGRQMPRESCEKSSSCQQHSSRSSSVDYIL

P18A = target: T2, P18A; test: flow cytometry, HEK293 transfected with hCCR8 P18A with C-terminal FLAG; sheet prints [huCCR8]=0.02 ug/ml
T2 construct: single alanine mutant of hCCR8; also called hCCR8 P18A
T2 receptor chain: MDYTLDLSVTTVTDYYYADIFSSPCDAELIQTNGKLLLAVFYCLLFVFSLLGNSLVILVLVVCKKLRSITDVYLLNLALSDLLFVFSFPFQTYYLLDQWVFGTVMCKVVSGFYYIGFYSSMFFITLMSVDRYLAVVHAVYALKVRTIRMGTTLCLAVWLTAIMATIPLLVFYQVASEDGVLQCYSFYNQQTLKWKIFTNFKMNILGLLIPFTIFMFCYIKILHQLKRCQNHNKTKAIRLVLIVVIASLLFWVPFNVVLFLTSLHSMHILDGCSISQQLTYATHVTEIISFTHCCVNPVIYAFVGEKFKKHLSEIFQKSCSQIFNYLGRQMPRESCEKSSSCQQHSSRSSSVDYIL

S22A = target: T3, S22A; test: flow cytometry, HEK293 transfected with hCCR8 S22A with C-terminal FLAG; sheet prints [huCCR8]=0.02 ug/ml
T3 construct: single alanine mutant of hCCR8; also called hCCR8 S22A
T3 receptor chain: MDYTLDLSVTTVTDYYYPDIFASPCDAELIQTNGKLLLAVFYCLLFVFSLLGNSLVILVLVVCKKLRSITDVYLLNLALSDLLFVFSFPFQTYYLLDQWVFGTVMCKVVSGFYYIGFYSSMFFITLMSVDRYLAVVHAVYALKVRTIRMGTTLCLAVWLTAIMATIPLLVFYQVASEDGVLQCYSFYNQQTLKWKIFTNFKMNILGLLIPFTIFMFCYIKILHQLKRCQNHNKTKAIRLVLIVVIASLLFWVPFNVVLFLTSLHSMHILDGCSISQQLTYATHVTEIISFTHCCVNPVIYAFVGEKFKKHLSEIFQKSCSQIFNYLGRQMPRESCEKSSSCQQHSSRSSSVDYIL

T11A = target: T4, T11A; test: flow cytometry, HEK293 transfected with hCCR8 T11A with C-terminal FLAG; sheet prints [huCCR8]=0.02 ug/ml
T4 construct: single alanine mutant of hCCR8; also called hCCR8 T11A
T4 receptor chain: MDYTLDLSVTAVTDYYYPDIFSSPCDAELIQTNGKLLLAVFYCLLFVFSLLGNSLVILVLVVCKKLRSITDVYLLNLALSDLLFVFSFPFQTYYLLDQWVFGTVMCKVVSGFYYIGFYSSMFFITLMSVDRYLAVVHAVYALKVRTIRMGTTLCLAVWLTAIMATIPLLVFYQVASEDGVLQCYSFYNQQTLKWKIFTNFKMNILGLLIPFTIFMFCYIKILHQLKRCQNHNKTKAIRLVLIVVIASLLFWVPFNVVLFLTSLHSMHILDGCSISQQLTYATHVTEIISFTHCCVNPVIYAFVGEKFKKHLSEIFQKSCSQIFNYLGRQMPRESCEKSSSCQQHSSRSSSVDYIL
Method: (§1) FIGS. 16A-16B depict the epitope maps for hu.Ab5.H13L1 (FIG. 16A) and hu.Ab4.H12L3 (FIG. 16B) mAbs.
(§2) To epitope map fucosylated hu.Ab5.H13L1, the binding to alanine point mutations in human CCR8 was analyzed by flow cytometry.

T13A = target: T5, T13A; test: flow cytometry, HEK293 transfected with hCCR8 T13A with C-terminal FLAG; sheet prints [huCCR8]=0.02 ug/ml
T5 construct: single alanine mutant of hCCR8; also called hCCR8 T13A
T5 receptor chain: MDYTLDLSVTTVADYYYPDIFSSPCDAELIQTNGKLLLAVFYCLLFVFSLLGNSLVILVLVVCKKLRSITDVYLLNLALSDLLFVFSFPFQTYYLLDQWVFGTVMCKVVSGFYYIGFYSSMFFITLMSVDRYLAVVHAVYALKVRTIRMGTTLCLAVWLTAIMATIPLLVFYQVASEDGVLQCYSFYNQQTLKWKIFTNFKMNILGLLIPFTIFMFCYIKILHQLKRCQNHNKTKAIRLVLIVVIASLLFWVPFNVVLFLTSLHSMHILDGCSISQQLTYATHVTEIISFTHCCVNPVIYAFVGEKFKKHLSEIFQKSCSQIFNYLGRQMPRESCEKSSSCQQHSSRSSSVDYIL
Method: as §1, §2

Y17A = target: T6, Y17A; test: flow cytometry, HEK293 transfected with hCCR8 Y17A with C-terminal FLAG; sheet prints [huCCR8]=0.02 ug/ml
T6 construct: single alanine mutant of hCCR8; also called hCCR8 Y17A
T6 receptor chain: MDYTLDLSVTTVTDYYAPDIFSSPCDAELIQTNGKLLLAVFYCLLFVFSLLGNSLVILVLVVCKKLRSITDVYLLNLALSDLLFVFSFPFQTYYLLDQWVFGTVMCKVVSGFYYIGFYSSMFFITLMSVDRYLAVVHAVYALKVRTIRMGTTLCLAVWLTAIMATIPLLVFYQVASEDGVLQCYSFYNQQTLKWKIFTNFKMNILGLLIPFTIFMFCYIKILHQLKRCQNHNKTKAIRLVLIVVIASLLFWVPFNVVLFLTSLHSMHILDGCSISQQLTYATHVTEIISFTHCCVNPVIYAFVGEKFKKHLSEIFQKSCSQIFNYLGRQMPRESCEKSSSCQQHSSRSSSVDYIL
Method: as §1, §2

Measured: binding result

B1: hu.Ab5.H13L1 (antibody, human IgG1, kappa)
heavy: not shown
light: DIQVTQSPSSLSASVGDRVTITCQASENIANALAWYQQKPGKPPKFLIYGASNLASGVPSRFSGSGSGTDFTFTISSLQPEDIATYYCQQAYYGNSFVEGTFGGGTKVEIKRTVAAPSVFIFPPSDEQLKSGTASVVCLLNNFYPREAKVQWKVDNALQSGNSQESVTEQDSKDSTYSLSSTLTLSKADYEKHKVYACEVTHQGLSSPVTKSFNRGEC
notes: fucosylated human IgG1; also called Ab5 variant
binds: all assays above
